The record followed here is patent US20240285785A1, “TARGETING SORTILIN” (priority 2022, published 2024).

Molecules are shown by their SMILES.

A short description of data set [1]: Murine hematotoxicity assay. The following applies: 3 mg/kg i.v. QW×4, compared to vehicle or MMAE treatment. The data set is classed as in vivo, BALB/c mice. As to the method: Murine hematotoxicity experiments were conducted at Charles River Laboratories and the care and use of animals was conducted in accordance with the regulations of the Association for Assessment and Accreditation of Laboratory Animal Care (AAALAC). Wild type BALB/c, female, 7-8 weeks, weighing approximately 18-22 g were randomized and dosed intravenously with control or test articles at a QW×4 schedule. Dosing volume was adjusted based on body weight and was administered at 10 mL/Kg. PDCs were dissolved in 25 mM Histidine 10% sucrose pH 7 and 3 mg/kg was administered. Free MMAE payload was also tested, and similarly dissolved in 25 mM Histidine 10% sucrose pH 7 and administered to the mice at a dose of […] by i.v. injection at a QW×4 schedule. 3 days following each dose, 150 μL of whole blood was collected via submandibular method and placed in K2 EDTA tubes stored on ice. Blood neutrophil counts were performed on the day of collection by IDEXX labs. Body weights were recorded twice a week until study endpoint.
As outlined in the material and methods of Example 1, wild type BALB/c, female, 7-8 weeks, weighing approximately 18-22 g were randomized and dosed intravenously with control or test articles at a QW×4 schedule. Dosing volume was adjusted based on body weight and was administered at 10 ml/Kg. […] Free MMAE payload was also tested, and similarly dissolved in 25 mM Histidine 10% sucrose pH 7 and administered to the mice at a dose of […] by i.v. injection at a QW×4 schedule. 3 days following each dose, 150 μL of whole blood was collected via submandibular method and placed in K2 EDTA tubes stored on ice. Blood neutrophil counts were performed on the day of collection by IDEXX labs. Body weights were recorded twice a week until study endpoint.

The nature of data set [2]: CMC formulation buffer screen (shake flask solubility). The data set is classed as physicochemical. The settings on record: 0.5 mg/mL. As for the experimental part:
Exemplary conjugate agents (e.g., sortilin binding agents), referred to in the present Example as “peptide drug conjugates” or “PDCs” were assessed in a formulation screen to determine an appropriate vehicle for in vivo studies and to assess precipitation risk. PDC solutions were made up to 0.5 mg/mL in the following buffers: 25 mM Histidine 10% sucrose pH 7, 50 mM acetate/acetic acid, 10% sucrose pH 5, 1×PBS pH 7.4, Saline, 50 mM HEPES 10% sucrose pH 7. Solubility was assessed using a shake flask method and the test compound concentration of the filtrate was confirmed using HPLC-UV.
The following buffers were screened: 25 mM Histidine 10% sucrose pH 7, 50 mM acetate/acetic acid, 10% sucrose pH 5, 1×PBS pH 7.4, Saline, 50 mM HEPES 10% sucrose pH 7. The PDCs were soluble in all buffers tested (Table 1), and we proceed to use 25 mM Histidine, 10% sucrose pH 7 as our buffer of choice for our in vivo studies.

The nature of data set [3]: Murine plasma stability assay. In kind it is in vitro ADME. The following applies: mouse, 37° C., read-out: Murine plasma stability assay, T1/2. As for the experimental part:
Frozen plasma was thawed at 37° C. and centrifuged at 4000 rpm to remove any clots and transferred to 96-well reaction plates by WuXi AppTec. Test compounds were added to the reaction plate at a final concentration of 2 μM and either stopped immediately or incubated at 37° C. for 5 minutes, 10 minutes, 30 minutes, 60 minutes, or 120 minutes. At the end of incubation, stop solution consisting of 200 ng/mL tolbutamide and 200 ng/mL labetalol in ACN was added to precipitate protein and mixed thoroughly. Samples were then transferred to a bioanalysis plate and shaken for 10 minutes prior to HPLC-MS/MS analysis of percent remaining compound.

`CC[C@H](C)[C@@H]([C@@H](CC(=O)N1CCC[C@H]1[C@H](OC)[C@@H](C)C(=O)N[C@H](C)[C@@H](O)c1ccccc1)OC)N(C)C(=O)[C@@H](NC(=O)[C@H](C(C)C)N(C)C(=O)OCc1ccc(NC(=O)[C@H](CCCNC(N)=O)NC(=O)[C@@H](NC(=O)CCCC(=O)NCCC(=O)N(C)CC(=O)N(C)CC(=O)N(C)CC(=O)N(C)CC(=O)N[C@@H](C)C(=O)N2CCC[C@H]2C(=O)N[C@@H](CCCNC(=N)N)C(=O)N[C@@H](Cc2c[nH]c3ccccc23)C(=O)N[C@@H](CC(=O)O)C(=O)N[C@@H](C)C(=O)N2CCC[C@H]2C(=O)N[C@@H](CC(C)C)C(=O)N[C@@H](CCCNC(=N)N)C(=O)N[C@@H](CC(=O)O)C(=O)N2CCC[C@H]2C(=O)N[C@@H](C)C(=O)N[C@@H](CC(C)C)C(=O)N[C@@H](CCCNC(=N)N)C(=O)N[C@@H](CCC(N)=O)C(=O)N[C@@H](CC(C)C)C(=O)N[C@@H](CC(C)C)C(=O)O)C(C)C)cc1)C(C)C` [PRGN_WT_PDC]: in data set [1], the blood neutrophil counts entry is recorded as “reduced neutrophil counts”. Also, the formulation screen result in data set [2] (25 mM Histidine 10% sucrose pH 7) was “clear solution”; in data set [2] (50 mM HEPES 10% sucrose pH 7) it was “clear solution”; in data set [2] (50 mM acetate/acetic acid, 10% sucrose pH 5), “clear solution”; in data set [2] (1x PBS pH 7.4), “clear solution”; in data set [2] (Saline), “clear solution”. The half-life at 2 μM in data set [3] was determined as 17.1 min.
